Test results from paper PMC6505963.

How the values were obtained:
BLM RQC (GST-free) = BLM RQC (GST-free) (human, UniProt P54132 1068-1209); assay: fluorescence polarization; FP: 10 mM Tris-HCl pH 7.5, 25 mM NaCl, 1 mM DTT, 100 pM DNA, 25 C; EMSA: 10 mM Tris-HCl pH 8.0, 2 mM DTT, 1 mM EDTA, 20% glycerol, 0.2 uM DNA, 4 C, 30 min, 7.5%
GST-BLM RQC S1121A = GST-BLM RQC S1121A (human, UniProt P54132 1068-1209, S1121A); assay: EMSA; FP: 10 mM Tris-HCl pH 7.5, 25 mM NaCl, 1 mM DTT, 100 pM DNA, 25 C; EMSA: 10 mM Tris-HCl pH 8.0, 2 mM DTT, 1 mM EDTA, 20% glycerol, 0.2 uM DNA, 4 C, 30 min, 7.5%
GST-BLM RQC R1139A = GST-BLM RQC R1139A (human, UniProt P54132 1068-1209, R1139A); assay: as above
GST-BLM RQC K1125A = GST-BLM RQC K1125A (human, UniProt P54132 1068-1209, K1125A); assay: as above
GST-BLM RQC = GST-BLM RQC (human, UniProt P54132 1068-1209); assay: EMSA; 1, 5, 10 uM protein; FP: 10 mM Tris-HCl pH 7.5, 25 mM NaCl, 1 mM DTT, 100 pM DNA, 25 C; EMSA: 10 mM Tris-HCl pH 8.0, 2 mM DTT, 1 mM EDTA, 20% glycerol, 0.2 uM DNA, 4 C, 30 min, 7.5%
Sequence of GST-BLM RQC (P54132 1068-1209): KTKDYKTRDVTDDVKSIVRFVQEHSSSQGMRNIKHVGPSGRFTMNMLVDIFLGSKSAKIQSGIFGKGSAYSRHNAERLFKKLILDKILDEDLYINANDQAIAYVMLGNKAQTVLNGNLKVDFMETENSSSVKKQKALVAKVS

Sequence of GST-BLM RQC K1125A (P54132 1068-1209 K1125A): as the sequence (P54132 1068-1209) above, with K58A counted along it
Sequence of BLM RQC (GST-free) (P54132 1068-1209): as the sequence (P54132 1068-1209) above
Sequence of GST-BLM RQC S1121A (P54132 1068-1209 S1121A): as the sequence (P54132 1068-1209) above, with S54A counted along it
Sequence of GST-BLM RQC R1139A (P54132 1068-1209 R1139A): as the sequence (P54132 1068-1209) above, with R72A counted along it

B1: forked duplex (dsDNA)
DNA 1: TTTTTTTTTTAGGGCATGCACTAC
DNA 2: GTAGTGCATGCCCTAATTTTTTTT
With B1 as the binder, how does the Kd (BLM RQC (GST-free)) read?
Its Kd is ~700 nM.

B2: Holliday junction (HJ) (structured_DNA)
DNA 1: CTAGAACAGCATGTCCTAGCAAGCCAGAATTC
DNA 2: GAATTCTGGCTTGCTAGGACATCTTTGCCCAC
DNA 3: GTGGGCAAAGATGTCCTAGCAATGTAATCGTC
DNA 4: GACGATTACATTGCTAGGACATGCTGTTCTAG
For B2, which binding signal (GST-BLM RQC S1121A) is on record?
The binding signal was ~10 % loss of binding vs wild type.

And the binding signal (GST-BLM RQC R1139A)?
The binding signal was ~70 % loss of binding vs wild type.

What about the binding signal (GST-BLM RQC K1125A) of the same binder?
The binding signal was ~50 % loss of binding vs wild type.

Does B2 bind (GST-BLM RQC)?
Result: binds
